Data set [1] deals with the molecule itself. In words: circular dichroism; spectra 190-260 nm and melting curves at 226 nm from 0 to 70 °C, average heating rate 0.1 °C/min. A general note: Circular dichroism is the unequal absorption of left and right circularly polarised light.
Data set [2] deals with the molecule itself. In words: AUC; sedimentation velocity, 50,000 rpm, 20 °C, 137 mM PBS pH 7.4 or 20 mM L-histidine pH 6.0 in H2O (10 peptides, 0.2-2.5 mg/ml) and 20 mM L-histidine in 2H2O (six peptides, 0.75-4 mg/ml); c(s) analysis with SEDFIT; peptides equilibrated for at least 48 h at room temperature to assemble into triple helices.

Non-standard residues stand in square brackets, D forms with d. Hyp = O=C(O)[C@@H]1C[C@@H](O)CN1

B1: MBL-12 (12 triplets) collagen peptide, Ac-(POG)5-EPGQGLRG-(POG)5-NH2 (peptide)
peptide: Ac-P[Hyp]GP[Hyp]GP[Hyp]GP[Hyp]GP[Hyp]GEPGQGLRGP[Hyp]GP[Hyp]GP[Hyp]GP[Hyp]GP[Hyp]G-NH2
SMILES: CC(=O)N1CCC[C@H]1C(=O)N1C[C@H](O)C[C@H]1C(=O)NCC(=O)N1CCC[C@H]1C(=O)N1C[C@H](O)C[C@H]1C(=O)NCC(=O)N1CCC[C@H]1C(=O)N1C[C@H](O)C[C@H]1C(=O)NCC(=O)N1CCC[C@H]1C(=O)N1C[C@H](O)C[C@H]1C(=O)NCC(=O)N1CCC[C@H]1C(=O)N1C[C@H](O)C[C@H]1C(=O)NCC(=O)N[C@@H](CCC(=O)O)C(=O)N1CCC[C@H]1C(=O)NCC(=O)N[C@@H](CCC(N)=O)C(=O)NCC(=O)N[C@@H](CC(C)C)C(=O)N[C@@H](CCCNC(=N)N)C(=O)NCC(=O)N1CCC[C@H]1C(=O)N1C[C@H](O)C[C@H]1C(=O)NCC(=O)N1CCC[C@H]1C(=O)N1C[C@H](O)C[C@H]1C(=O)NCC(=O)N1CCC[C@H]1C(=O)N1C[C@H](O)C[C@H]1C(=O)NCC(=O)N1CCC[C@H]1C(=O)N1C[C@H](O)C[C@H]1C(=O)NCC(=O)N1CCC[C@H]1C(=O)N1C[C@H](O)C[C@H]1C(=O)NCC(N)=O
notes: (POG)5 written out; Homotrimeric collagen triple helix
With B1, the binding result in data set [1] was “binds”.

B2: MBL-N (MBL native) collagen peptide, Ac-(POG)4-EPGQGLRG-(POG)3-NH2 (peptide)
peptide: Ac-P[Hyp]GP[Hyp]GP[Hyp]GP[Hyp]GEPGQGLRGP[Hyp]GP[Hyp]GP[Hyp]G-NH2
SMILES: CC(=O)N1CCC[C@H]1C(=O)N1C[C@H](O)C[C@H]1C(=O)NCC(=O)N1CCC[C@H]1C(=O)N1C[C@H](O)C[C@H]1C(=O)NCC(=O)N1CCC[C@H]1C(=O)N1C[C@H](O)C[C@H]1C(=O)NCC(=O)N1CCC[C@H]1C(=O)N1C[C@H](O)C[C@H]1C(=O)NCC(=O)N[C@@H](CCC(=O)O)C(=O)N1CCC[C@H]1C(=O)NCC(=O)N[C@@H](CCC(N)=O)C(=O)NCC(=O)N[C@@H](CC(C)C)C(=O)N[C@@H](CCCNC(=N)N)C(=O)NCC(=O)N1CCC[C@H]1C(=O)N1C[C@H](O)C[C@H]1C(=O)NCC(=O)N1CCC[C@H]1C(=O)N1C[C@H](O)C[C@H]1C(=O)NCC(=O)N1CCC[C@H]1C(=O)N1C[C@H](O)C[C@H]1C(=O)NCC(N)=O
notes: (POG)4 written out; (POG)3 written out; Homotrimeric collagen triple helix
Turning to B2, in data set [1], the binding result is “binds”.

B3: MBL-E (MBL EOG) collagen peptide, Ac-(POG)5-EOGQGLRG-(POG)3-NH2 (peptide)
peptide: Ac-P[Hyp]GP[Hyp]GP[Hyp]GP[Hyp]GP[Hyp]GE[Hyp]GQGLRGP[Hyp]GP[Hyp]GP[Hyp]G-NH2
SMILES: CC(=O)N1CCC[C@H]1C(=O)N1C[C@H](O)C[C@H]1C(=O)NCC(=O)N1CCC[C@H]1C(=O)N1C[C@H](O)C[C@H]1C(=O)NCC(=O)N1CCC[C@H]1C(=O)N1C[C@H](O)C[C@H]1C(=O)NCC(=O)N1CCC[C@H]1C(=O)N1C[C@H](O)C[C@H]1C(=O)NCC(=O)N1CCC[C@H]1C(=O)N1C[C@H](O)C[C@H]1C(=O)NCC(=O)N[C@@H](CCC(=O)O)C(=O)N1C[C@H](O)C[C@H]1C(=O)NCC(=O)N[C@@H](CCC(N)=O)C(=O)NCC(=O)N[C@@H](CC(C)C)C(=O)N[C@@H](CCCNC(=N)N)C(=O)NCC(=O)N1CCC[C@H]1C(=O)N1C[C@H](O)C[C@H]1C(=O)NCC(=O)N1CCC[C@H]1C(=O)N1C[C@H](O)C[C@H]1C(=O)NCC(=O)N1CCC[C@H]1C(=O)N1C[C@H](O)C[C@H]1C(=O)NCC(N)=O
notes: (POG)5 written out; (POG)3 written out; Homotrimeric collagen triple helix; form used in AUC, SAXS and SANS; The CD and DSC runs used a form with one POG triplet fewer
With B3, the binding result in data set [2] was “binds”.

B4: T3-785 collagen peptide, Ac-(POG)3-ITGARGLAGPOG-(POG)3-NH2 (peptide)
peptide: Ac-P[Hyp]GP[Hyp]GP[Hyp]GITGARGLAGP[Hyp]GP[Hyp]GP[Hyp]GP[Hyp]G-NH2
SMILES: CC[C@H](C)[C@H](NC(=O)CNC(=O)[C@@H]1C[C@@H](O)CN1C(=O)[C@@H]1CCCN1C(=O)CNC(=O)[C@@H]1C[C@@H](O)CN1C(=O)[C@@H]1CCCN1C(=O)CNC(=O)[C@@H]1C[C@@H](O)CN1C(=O)[C@@H]1CCCN1C(C)=O)C(=O)N[C@H](C(=O)NCC(=O)N[C@@H](C)C(=O)N[C@@H](CCCNC(=N)N)C(=O)NCC(=O)N[C@@H](CC(C)C)C(=O)N[C@@H](C)C(=O)NCC(=O)N1CCC[C@H]1C(=O)N1C[C@H](O)C[C@H]1C(=O)NCC(=O)N1CCC[C@H]1C(=O)N1C[C@H](O)C[C@H]1C(=O)NCC(=O)N1CCC[C@H]1C(=O)N1C[C@H](O)C[C@H]1C(=O)NCC(=O)N1CCC[C@H]1C(=O)N1C[C@H](O)C[C@H]1C(=O)NCC(N)=O)[C@@H](C)O
notes: (POG)3 written out; Homotrimeric collagen triple helix; also called Type III T3-785 peptide
Take B4: the binding result in data set [2] is “binds”.

(Values after article PMC9898670, “A solution structure analysis reveals a bent collagen triple helix in the complement activation recognition molecule mannan-binding lectin” (The Journal of Biological Chemistry, 2022).)
